Measurements taken from US20100129344A1 (published 2010).

Assays:
IGF-II (human) [1] = target: T1, IGF-II (human) (human, UniProt P01344 25-91); assay: BIAcore, IGF-II on chip, 200 nM (the reference itself)
T1 construct: also called radioiodinated IGF-II
Description: (§1) Instrument and reagents (buffers, chemicals for activating and deactivated) were purchased from BIAcore (Uppsala, Sweden). IGF-I, IGF-II and des(1-3)IGF-I were immobilized on the sensor chip by amine coupling and deactivated with 0.1M ethanolamine. A reference flow cell was also prepared to correct for background and bulk refractive index contribution. After equilibration buffer to achieve a stable baseline, binding experiments was at 22 C in 2 separate experiments with the samples injected in random order. 40 μl of each sample was injected over the sensor surface at a rate of 10 μl/min (association period), followed by a 6 min wash with buffer (dissociation period). The sensor surface was regenerated with 20 μl of 100 mM HCl and washed for 6 min before the next sample. We used a 1:1 Langmuir binding interaction model for kinetic analysis using the BIAcore software and GraphPad Prism (GraphPad Software Inc, San Diego, Calif.).
(§2) The interaction of proteolysed IGFBP-1 with IGF-I and IGF-II biosensor surfaces was analysed (BIAcore). In FIG. 12 the mean biosensorgrams for the interaction of 200 nM phosphorylated IGFBP-1 intact are shown, and after 2-h and 4-h incubations with partially purified azurocidin, with immobilized IGF-I (FIG. 12A) and IGF-II (FIG. 12B). […]

IGF-II (human) [2] = target: T1, IGF-II (human); assay: BIAcore, IGF-II on chip, 400 nM
Description: The sensor surface was regenerated with 20 μl of 100 mM HCl and washed for 6 min before the next sample. We used a 1:1 Langmuir binding interaction model for kinetic analysis using the BIAcore software and GraphPad Prism (GraphPad Software Inc, San Diego, Calif.).
(§3) The interaction of proteolysed IGFBP-1 with IGF-I and IGF-II biosensor surfaces was analysed (BIAcore). […] The kinetic analyses of the rates of association (over 21-120 s, ks) and dissociation (over 261-360 s, kd) for the results shown in FIGS. 12A and 12B are summarized in Table 2. […] The rate of dissociation further increased to more than 7-fold at the 4-h time point. The rate of dissociation of IGFBP-1 from IGF-II was greater than twice that from IGF-I, and proteolysis had no effect on this relationship.
TABLE 2 Kinetic analysis of interactions of intact and proteolysed phosphorylated IGFBP-1 with IGF biosensor surfaces The kinetic data shown in […] were analysed using the 1:1 Langmuir interaction model. IGFBP-I was injected either intact, or after 2- or 4-proteolysis by azurocidin, over IGF-I and IGF-II biosensor surfaces.

IGF-II (human) [3] = target: T1, IGF-II (human); assay: BIAcore, IGF-II on chip against IGF-I on chip, 200 nM
Description: as §1, §2

[4] = target: T2, Recombinant IGF-I (human) (human, UniProt P05019 49-118); assay: BIAcore, IGF-I on chip, 400 nM
T2 construct: also called IGF-1; full length IGF-I
Description: as §1, §2

IGF-II (human) [5] = target: T1, IGF-II (human); assay: BIAcore, IGF-II on chip against IGF-I on chip, 400 nM
Description: as §1
as §3, with “The rate of dissociation of IGFBP-1 from IGF-II was greater than twice that from IGF-I, and proteolysis had no effect on this relationship.” left out

[6] = target: T2, Recombinant IGF-I (human); assay: BIAcore, IGF-I on chip, 200 nM (the reference itself)
Description: as §1, §2

des(1-3)IGF-I = target: T3, des(1-3)IGF-I (human, UniProt P05019 52-118); assay: BIAcore, des(1-3)IGF-I amine-coupled on chip
T3 construct: domain: des(1-3)IGF-I (mature IGF-I without its first three residues)
Description: Recombinant pIGFBP-1 was analyzed across a des(1-3) IGF-I biosensor surfaces with a concentration range of 50, 100, 200, 400 nM, at a flow rate of 10 μl/min. The mean sensorgrams are shown for 400 nM IGFBP-1 (intact, n=3) and 200 nM IGFBP-1, intact (0 h, n=4) and after 2-h (n=5) and 4-h (n=3) incubations with partially purified azurocidin in a protease:substrate ratio of 1:3 500 for 2 h at 37 C.
as §1, with “We used a 1:1 Langmuir binding interaction model for kinetic analysis using the BIAcore software and GraphPad Prism (GraphPad Software Inc, San Diego, Calif.).” left out
The interaction of IGFBP-1 with des(1-3)IGF-I on the biosensor surface was also determined. […]

IGF-II (human) [7] = target: T1, IGF-II (human); assay: cell-based or functional assay

T1 sequence (P01344 25-91 limits assumed): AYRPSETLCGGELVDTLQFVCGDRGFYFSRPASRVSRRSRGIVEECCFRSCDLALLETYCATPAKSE
T2 sequence (P05019 49-118 limits assumed): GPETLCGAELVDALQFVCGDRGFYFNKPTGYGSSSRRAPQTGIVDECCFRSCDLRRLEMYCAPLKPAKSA
T3 sequence (P05019 52-118 limits assumed): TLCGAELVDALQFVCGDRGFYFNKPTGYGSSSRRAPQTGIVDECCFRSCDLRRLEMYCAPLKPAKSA

- rel kd (relative to 200 nM intact pIGFBP-1) (IGF-II (human) [1]): 1 ratio
- rel ks (relative to 200 nM intact pIGFBP-1) (IGF-II (human) [1]): 1 ratio
- rel kd (relative to 200 nM intact pIGFBP-1) (IGF-II (human) [2]): 0.97 ratio
- rel ks (relative to 200 nM intact pIGFBP-1) (IGF-II (human) [2]): 1.86 ratio
- kd rel to IGF-I (IGF-II (human) [3]): 2.41 ratio
- ks rel to IGF-I (IGF-II (human) [3]): 1.02 ratio
- rel kd (relative to 200 nM intact pIGFBP-1) [4]: 1 ratio
- rel ks (relative to 200 nM intact pIGFBP-1) [4]: 1.91 ratio
- kd rel to IGF-I (IGF-II (human) [5]): 2.33 ratio
- ks rel to IGF-I (IGF-II (human) [5]): 1.01 ratio
- rel kd (relative to 200 nM intact pIGFBP-1) [6]: 1 ratio
- rel ks (relative to 200 nM intact pIGFBP-1) [6]: 1 ratio
- fold lower biosensor response than with full length IGF-I (des(1-3)IGF-I): 10 fold less
- 3H-thymidine incorporation in MCF-7 cells stimulated by IGF-II 10 ng/ml (2-fold without IGFBP-1) (IGF-II (human) [7]): 1.5 fold
B1: Recombinant phosphorylated IGFBP-1 (human), intact (other, UniProt P08833 26-259, looked up)
chain: APWQCAPCSAEKLALCPPVSASCSEVTRSAGCGCCPMCALPLGAACGVATARCARGLSCRALPGEQQPLHALTRGQGACVQESDASAPHAAEAGSPESPESTEITEEELLDNFHLMAPSEEDHSILWDAISTYDGSKALHVTNIKKWKEPCRIELYRVVESLAKAQETSGEEISKFYLPNCNKNGFYHSRQCETSMDGEAGLCWCVYPWNGKRIPGSPEIRGDPNCQIYFNVQN
modifications: phosphorylated; the sites were not determined here (the filing names Ser101, Ser119, Ser169 as sites for phosphorylation)
notes: mature; Analyte in the BIAcore runs and substrate in the protease assays; also called pIGFBP-1; recombinant pIGFBP-1
